Measured values reported in patent US20230382979A1 (ADAPTIVE BIOTECHNOLOGIES, published 2023).

Columns and labels:
[1] = target: SARS-CoV-2 spike protein, B1.1.7 (alpha variant), borne on lentiviral pseudovirus (SARS-CoV-2, B1.1.7); test: cell-based or functional assay
[2] = target: SARS-CoV-2 spike protein, B1.351 (beta variant), borne on lentiviral pseudovirus (SARS-CoV-2, B1.351); test: cell-based or functional assay
[3] = target: T1, SARS-CoV-2 spike protein on live virus, strain USA-WA1/2020 (SARS-CoV-2, WA01/2020 strain, UniProt P0DTC2 14-1273); test: cell-based or functional assay
[4] = target: T1, SARS-CoV-2 spike protein on live virus, …; test: cell-based or functional assay; remark: listed apart in the source
[5] = target: T2, Receptor-binding domain (RBD) of the SARS-CoV-2 spike protein, WA01/2020 strain (SARS-CoV-2, WA01/2020 strain, UniProt P0DTC2 319-541); test: dose-response ELISA on WT RBD
[6] = target: T2, Receptor-binding domain (RBD) of the …; test: dose-response ELISA on coated antigen
[7] = target: T2, Receptor-binding domain (RBD) of the …; test: ELISA, antibody blocks RBD binding to human ACE2
[8] = target: T2, Receptor-binding domain (RBD) of the …; test: SPR (Biacore 8K), antigen immobilized, antibody injected
[9] = target: SARS-CoV-2 spike protein on live virus, B1.351 (beta variant) (SARS-CoV-2, B1.351); test: cell-based or functional assay
[10] = target: T2, Receptor-binding domain (RBD) of the …; test: SPR (Biacore), footnote to the Kd of < 4.7* pM

Binder	Pseudo Neut, B1.1.7 IC50 (pM) [1] [pM]	Pseudo Neut, B1.351 IC50 (pM) [2] [pM]	Live Neut, WA1/2020 IC50 (pM) [3] [pM]	IC50, live virus micro-neutralization WA1/2020 [4] [nM]	EC50 (read off the curve) [5] [µg/mL]	EC50 [6] [nM]	IC50 [7] [nM]	Kd [8] [nM]	Live Neut, B1.351 IC50 (pM) [9] [pM]	koff [10] [s⁻¹]
antibody 2729 (antibody, V domains shown) VH: QVTLKESGPVLVKPTETLTLTCTVSGFSLSNARMGVSWIRQPPGKALEWLAHIFSNDEKSYSTYLKSRLTISKDSSKSQVVLTMTIMDPVDTATYYCARTAGRYSSRWGHYYYYMDVWGKGTTVTVSS VL: NFMLTQPHSVSESPGKTVTISCTGSNGSIASNFMQWYQQRPGSAPTIVIYEDNQRPSGVPDRFSGSIDGSSNSASLTISGLKTEDEADYYCQSYDSSDSDLGVFGGGTKLTVL	93	793	111	0.272	~0.01	0.037	~0.66	0.015		
antibody 1589 (antibody, V domains shown) VH: EVQLVESGGGLIQVGGSLRLSCAASGLTVTSNYMNWVRQGPGKGLEWVSLIYSGGTTYYADSVKGRFTISRDDSKNTLYLQMNSLRAEDTAVYYCARPIVGARSGMDVWGQGTAVTVSS VL: DIQMTQSPSSLSASVGDRVTITCQASQDINKYLNWYQQKPGKAPKLLIYDASNLETGVPSRFSGSGSGTDFTFTISSLQPEDLATYYCHQFDNLPGTFGGGTKVEIK	133	137	43	0.0667		0.036	0.52	< 0.0047	167	< 1e-06
antibody 2619 (antibody, V domains shown) VH: EVQLVESGGGLVQPGRSLRLSCAASGFTFDDYAMHWVRQAPGKGLEWVSGISWNSGSIGYADSVKGRFTLSRDNAKNSLFLQMDSLRAEDTALYYCAKDVSYRSGSYYRFWGGSGSWGQGTLVTVSS VL: DIQMTQSPSSLSASVGDRVTITCRASLSIRSYLNWYQQKPGKPPKLLIYAASSLQSGVPSRFSGSGSGTDFTLTISSLQPEDFATYYCQQSYSTPLTFGGGTKVEIK	~7		118		~0.02	0.037	0.479	0.105		
